Measured values from article doi:10.1101/228536 (bioRxiv, 2017).

T1: Med15 KIX+ABD1,2,3 (Med15 1-651 Δ239-272, Δ373-483) (yeast, UniProt P19659 1-651, Δ239-272 | Δ373-483)
T1 sequence (looked up): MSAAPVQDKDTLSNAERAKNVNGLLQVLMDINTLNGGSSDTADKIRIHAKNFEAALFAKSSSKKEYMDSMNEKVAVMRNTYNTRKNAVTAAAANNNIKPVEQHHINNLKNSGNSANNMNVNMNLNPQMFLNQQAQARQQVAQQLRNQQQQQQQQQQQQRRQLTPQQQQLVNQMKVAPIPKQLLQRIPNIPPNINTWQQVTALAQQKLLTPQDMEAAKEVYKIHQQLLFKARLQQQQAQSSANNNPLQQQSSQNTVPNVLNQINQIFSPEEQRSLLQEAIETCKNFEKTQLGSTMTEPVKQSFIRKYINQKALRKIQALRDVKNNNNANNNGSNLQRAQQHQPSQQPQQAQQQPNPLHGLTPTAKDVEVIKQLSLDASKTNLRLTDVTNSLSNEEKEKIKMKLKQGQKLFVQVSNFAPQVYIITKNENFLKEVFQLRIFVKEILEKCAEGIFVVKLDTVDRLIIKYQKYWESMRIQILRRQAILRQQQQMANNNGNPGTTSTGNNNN

T2: Med15 ABD2 (Med15 277-368) (yeast, UniProt P19659 277-368)
T2 sequence (looked up): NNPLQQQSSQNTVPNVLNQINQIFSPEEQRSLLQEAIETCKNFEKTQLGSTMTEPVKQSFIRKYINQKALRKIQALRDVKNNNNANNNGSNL

T3: Med15 ABD3 (Med15 484-651) (yeast, UniProt P19659 484-651)
T3 sequence (looked up): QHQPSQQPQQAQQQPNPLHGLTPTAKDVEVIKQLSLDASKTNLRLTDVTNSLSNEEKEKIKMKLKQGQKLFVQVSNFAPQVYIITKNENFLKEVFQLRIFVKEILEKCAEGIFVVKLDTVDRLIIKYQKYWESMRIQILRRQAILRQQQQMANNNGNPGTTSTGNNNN

T4: Med15 ABD1,2,3 (Med15 158-651 Δ239-272, Δ373-483) (yeast, UniProt P19659 158-651, Δ239-272 | Δ373-483)
T4 sequence (looked up): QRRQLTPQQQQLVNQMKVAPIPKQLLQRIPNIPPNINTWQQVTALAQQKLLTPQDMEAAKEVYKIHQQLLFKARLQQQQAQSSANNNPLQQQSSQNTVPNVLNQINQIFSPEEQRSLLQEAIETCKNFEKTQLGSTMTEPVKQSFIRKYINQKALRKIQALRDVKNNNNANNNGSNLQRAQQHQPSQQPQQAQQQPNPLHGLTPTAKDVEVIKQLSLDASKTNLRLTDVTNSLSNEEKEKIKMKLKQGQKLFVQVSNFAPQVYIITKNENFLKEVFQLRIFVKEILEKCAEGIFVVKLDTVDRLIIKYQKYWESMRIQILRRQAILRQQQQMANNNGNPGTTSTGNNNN

B1: Met4 72-160 (domain or fragment, yeast, UniProt P32389 72-160, looked up)
chain: VTNRGNTNLYDHAVTPEILLEQLAYVDNFIPSLDNEFSNVDWNVNTTHNNANNNGADTFSSINANPFDLDEQLAIELSAFADDSFIFPD
B2: Oregon Green-labeled Ino2 1-41-(GS)3-96-160 (domain or fragment, yeast)
chain: MQQATGNELLGILDLDNDIDFETAYQMLSSNFDDQMSAHIHGSGSGSPHQPSMGFDQALGLKLSPSSSGLLSTNESNAIEQFLDNLISQDMMSSNASMNSESHLHIRSPKKQ
modifications: Oregon Green 488 dye, N-terminal fluorescent label
B3: Oregon Green-labeled Met4 72-160 (domain or fragment, yeast, UniProt P32389 72-160, looked up)
chain: B1 chain
modifications: Oregon Green 488 dye, N-terminal fluorescent label
B4: Med15 ABD1 (Med15 158-238) (domain or fragment, yeast, UniProt P19659 158-238, looked up)
chain: QRRQLTPQQQQLVNQMKVAPIPKQLLQRIPNIPPNINTWQQVTALAQQKLLTPQDMEAAKEVYKIHQQLLFKARLQQQQAQ
B5: Ino2 1-41-(GS)3-96-160 (domain or fragment, yeast)
chain: B2 chain

How the values were obtained:
[1] = target: T1, Med15 KIX+ABD1,2,3 (Med15 1-651 …); assay: cross-linking
[2] = target: T2, Med15 ABD2 (Med15 277-368); assay: ITC
[3] = target: T3, Med15 ABD3 (Med15 484-651); assay: ITC
[4] = target: T1, Med15 KIX+ABD1,2,3 (Med15 1-651 …); assay: fluorescence polarisation
[5] = target: T3, Med15 ABD3 (Med15 484-651); assay: fluorescence polarisation
[6] = target: T4, Med15 ABD1,2,3 (Med15 158-651 Δ239-272, …); assay: fluorescence polarisation
Met4 72-160 = target: B1; assay: ITC

B1
binding result [1]: binds
Kd [2]: 20 µM
Kd [3]: 1.36 µM

B2
Kd [4]: 0.21 µM
binding result [5]: binds
Kd [6]: ~0.3 µM

B3
Kd [4]: 0.196 µM
binding result [5]: binds
Kd [6]: ~0.3 µM

B4
binding result (Met4 72-160): binds

B5
Kd [2]: 34 µM
Kd [3]: 7.8 µM
